Measurements: the DeepSol protein solubility set

Assay: soluble on expression in E. coli; label from the status in PepcDB or PDB records
In the case of “MVTNKLITLLPDLATFIVVVNEGSFTAAAKKLGVTPSALSKLITRLENALSVKLFERTTRSLLITESGKKIYQQSVIMVEAAQQAVDISSSEHTVPSGSLTVAAPKAFLTIVLQPLITPFLTKYPKIQLKLRASDGDIDMIAQGIDVVFRLTDKPTEGLVMKEIGKVNLSLCASPTYLEERGIPHLPQELANHDCLFLGETTTDHIWEFVKGTESHVIAVSGRYAVNHSQMRLNGVKDGFGIGIFPDFVIKEALANNEVISVLSDWQIKGNYHGVIAMQYAQNKYIPSRLKVFTEFVKENLMKSKVNDERT”, the “soluble on expression in E. coli” value is reported as “not soluble”. In the case of “RNHWVSQYSSVKQEKNEKWQRHWREILGEDTEDLPPYRYDYGLYSGIWQANETLREQCFAALTHGNSVYERVKAFQKMTTHEHNTDDQILLSKLAQLENEIIQALEQHSQKNVSIETGSGTLCKESKHNVYRHENGPTEEQLYNSINLQHDLDRELRNIIYDRLGDDGLDEYFFLRAPLEELTENETAINWMLWGLVSDHFDVDPYQTALELNLMNAEPRWGQDERFVVVTTAA”, the “soluble on expression in E. coli” value is reported as “not soluble”. With “MDSWYPSKELIEACLKKGFHVIAMLKTNRILYPKGIAVQAKQFARYLEPRDTRLVTVGNERYRVYRYEGALNGLDDAVVLLTWKADQPMTPEHLHGVLSTDRELSDEDILRYYAQRWSIECFFRQVKDQLKLDGYRVRHIRAVKRYWVTVLLACVYSIAESQQDISAGLNLLRTRKGHSLIEFIYDAAKQDIPIDVVKKQLHVA” the “soluble on expression in E. coli” value was “not soluble”. For “LFSCIISSIETTKYVGISGVNKSVIDYTPAADMELVTIGESLSLKHPPIDATGCPSPATITRAAVDLLKIPIMTIDAGSYVKPKIPYISVDQRPTGDIQKGLGMDNSKELLNLGKIIGNNNIYDSLVIGESVPGGTTTALGVLLGLGYDARDKISSGSVENPKDLKLSVVENGLKTCKSEDVFDVLNAVGDKMMPVVAGMTISAVSKGK”, the “soluble on expression in E. coli” value was “not soluble”. With “MGSDKIHHHHHHLKILKFQIKDFRNLKKIEYQPSPGLNIFYGENAQGKTNILEALYYLATGNSFRSNKEKTLISYESSSLQVQARYNHQERIIDSSITYGLDGKVFRINKKRASYNHTDRLRIILFSPDDLYLVKGAPYKRRFFLDFLLGQISNEYLFKLDNYRKILKKRNLLLKKEETNSRSFAIINDIFMDLAAQLLISRLNLINVLDEAIQEIYPQINNDGGQLKIRYALSFPVDSGKINLDILKDSLKKQVESETEKEKKRKTTLLGPHLDDMHIYLNEQMARLFASQGQQRNIVICLKLAEIMTFRKIKGFFPIFLLDEVLAELDDSRSNKLLKYLAQSPFQSFLTSVKLEKFEVMDASIFLVKDGCLLGKE” the “soluble on expression in E. coli” value was “not soluble”. For “MDYKEIVFDVDNTLIDTEYAILHSLQDTIKQINRKIIPIKELSFALGITGEDALRYLKIEDITIALSMWDRNMEKYKNTVLVFKEIKEMLTEIIKLNIGIGIVTSKTHEEFRNDFLSFDIAPYFNTVVCSNDTLEHKPKAVPLLKYMELTKCQNNELLYIGDSIYDMQCAYRANVDFGLVKWGSGDRVSTVISFTTPLDLIRQLSVSSN”, the “soluble on expression in E. coli” value was “not soluble”. For “LPKNLMVRLRSNTEPLSKKLRVVADYVLENAHEVQYQTITDLAFNTKTSEATVVRLCRDLGYKGYSDFRMALAVDLSQSANQSQPKMDGDICEVSAQSAVDSLMDTAKLIDRAALNRICELVHGAK”, the “soluble on expression in E. coli” value was “not soluble”. In the case of “GSHGMRVIIAGFGRFGQITGRLLLSSGVKMVVLDHDPDHIETLRKFGMKVFYGDATRMDLLESAGAAKAEVLINAIDDPQTNLQLTEMVKEHFPHLQIIARARDVDHYIRLRQAGVEKPERETFEGALKTGRLALESLGLGPYEARERADVFRRFNIQMVEEMAMVENDTKARAAVYKRTSAMLSEIITEDREHLSLIQRHGWQGTEEGKHTGNMADEPETKPSSTSGGLVPRGSSGMILIIYAHPYPHHSHANKRMLEQARTLEGVEIRSLYQLYPDFNIDIAAEQEALSRADLIVWQHPMQWYSIPPLLKLWIDKVFSHGWAYGHGGTALHGKHLLWAVTTGGGESHFEIGAHPGFDVLSQPLQATAIYCGLNWLPPFAMHCTFICDDETLEGQARHYKQRLLEWQEAHHG”, the “soluble on expression in E. coli” value is reported as “soluble”. For “MSLTKLKKVMISVIAATLLLLAGCGSSAVVKTDAGSVTQDELYEAMKTTYGNEVVQQLTFKKILEDKYTVTEKEVNAEYKKYEEQYGDSFESTLSSNNLTKTSFKENLEYNLLVQKATEANMNVSESKLKTYYKTWEPDITVRHILVDDEATAKEIQTKLKNGEKFTDLAKEYSTDTATSTNGGLLDPFGPGEMDETFEKAAYALENKDDVSGIVKSTYGYHLIQLVKKTEKGTYAKEKANVKAAYIESQLTTENMTAALKKELKAANIDIKDSDLKDAFADYTEGHHHHHH”, the “soluble on expression in E. coli” value was “soluble”. In the case of “MSLSHTANPCCSHPCQNRGVCMSVGFDQYKCDCTRTGFYGENCSTPEFLTRIKLFLKPTPNTVHYILTHFKGFWNVVNNIPFLRNAIMSYVLTSRSHLIDSPPTYNADYGYKSWEAFSNLSYYTRALPPVPDDCPTPLGVKGKKQLPDSNEIVEKLLLRRKFIPDPQGSNMMFAFFAQHFTHQFFKTDHKRGPAFTNGLGHGVDLNHIYGETLARQRKLRLFKDGKMKYQIIDGEMYPPTVKDTQAEMIYPPQVPEHLRFAVGQEVFGLVPGLMMYATIWLREHNRVCDVLKQEHPEWGDEQLFQTSRLILIGETIKIVIEDYVQHLSGYHFKLKFDPELLFNKQFQYQNRIAAEFNTLYHWHPLLPDTFQIHDQKYNYQQFIYNNSILLEHGITQFVESFTRQIAGRVAGGRNVPPAVQKVSQASIDQSRQMKYQSFNEYRKRFMLKPYESFEELTGEKEMSAELEALYGDIDAVELYPALLVEKPRPDAIFGETMVEVGAPFSLKGLMGNVICSPAYWKPSTFGGEVGFQIINTASIQSLICNNVKGCPFTSFSVPDPELIKTVTINASSSRSGLDDINPTVLLKERSTELEGHHHHHH”, the “soluble on expression in E. coli” value is reported as “not soluble”. With “VAATKASTATDEPVKRTATKSPAASASGAKTGAKRTAAKSASGSPPAKRATKPAARSVKPASAPQDTTTSTIPKRKTRAAAKSAAAKAPSARGHATKPRAPKDAQHEAATDPEDALDSVEELDAEPDLDVEPGEDLDLDAADLNLDDLEDDVAPDADDDLDSGDDEDHEDLEAEAAVAPGQTADDDEEIAEPTEKDKASGDFVWDEDESEALRQARKDAELTASADSVRAYLKQIGKVALLNAEEEVELAKRIEAGLYATQLMTELSERGEKLPAAQRRDMMWICRDGDRAKNHLLEANLRLVVSLAKRYTGRGMAFLDLIQEGNLGLIRAVEKFDYTKGYKFSTYATWWIRQAITRAMADQARTIRIPVHMVEVINKLGRIQRELLQDLGREPTPEELAKEMDITPEKVLEIQQYAREPISLDQTIGDEGDSQLGDFIEDSEAVVAVDAVSFTLLQDQLQSVLDTLSEREAGVVRLRFGLTDGQPRTLDEIGQVYGVTRERIRQIESKTMSKLRHPSRSQVLRDYLD” the “soluble on expression in E. coli” value was “soluble”. In the case of “VSLDKKLMPVPDGHPDVFDREWPLRVGDIDRAGRLRLDAACRHIQDIGQDQLREMGFEETHPLWIVRRTMVDLIRPIEFGDMLRCRRWCSGTSNRWCEMRVRVDGRKGGLIESEAFWIHVNRETEMPARIADDFLAGLHRTTSVDRLRWKGYLKPGSRDDASEIHEFPVRVTDIDLFDHMNNAVYWSVIEDYLASHAELLRGPLRVTIEHEAPVALGDKLEIISHVHPAGSTEIFGPGLVDRAVTTLTYVVGDEPKAVASLFNL”, the “soluble on expression in E. coli” value is reported as “soluble”. With “MLEACTKCGTCAEACTMYLGSGRKKIYSPVYRSDMLRKIYKKHFTLTGKLFGPLIGAKDPTEDDINALAESAYRCTVCRRCALACPFGLDNGLITRETRKIFADLGILEHHHHHH” the “soluble on expression in E. coli” value was “not soluble”. With “MTTNKPLISVIMPVYNGGFTIRQAVESVFCQNIPLELLVIDDGSTDQTSEVLSVYRNRPDFHYLKNPHNIGAAASRNRGVQEAHGQYVAFLDADDWWENGKLQIQLDTLHETGRVLCSTGRELMNYDGTPTGKYIPVKETVSYRDLLKHNSINCSSVLLLRDVAAEFPMEHDDSHEDYLTWLKILRKYGPAAGIDRPLLKYRMSKTSKSGDKKKSAIMTYKVYRYMGYSHMRCILYFISYAIHGFWKYR” the “soluble on expression in E. coli” value was “not soluble”. With “MGSDKIHHHHHHMSKTLSILVLHRVPFENVGYDQVIDHDLHQVTYLGLASPMSKLPKDLPCHKVVIEQLDLLVDSAVALTQEQGIEFDYIIGVSEYQLFDAALIRERLNIQGPKPHDVLRVRDKLVMKHQVQAAGLHVPRFFELAEVMTQELTGLQQLILKPKDGASSENVIKYADLEALRSAITSSATGIPVLDNDKNFKNFEVEEFVEGPILHLDGIVQGGVIDTFVASTYEGTCLAFAEGEALGSYQIQTEPRLMDWAQAVITALAIDSGAFHLEVIESGERLVFLEIGHRAGGANVVRTFELRTGINLHHANLATQLRLPIHRQEVNTHKSYGWFVFPGHHYDWDKCRLEGHEDIKIHHQMFEWNQLSNEQPLTKHITYQKKEVPAAGIIQGDDSIQVQNFMQRVLQYIQVQEAV” the “soluble on expression in E. coli” value was “not soluble”. In the case of “MALAGAEVVVKMTPKSVAHVFKKEMSSLHTSLLHLKPSPFQATYLGLEMTIDHLQVVDFKMPKLSYETSASQSHMTFKLLGGSARLLGQYSAVYKTKREGQFEMIFEHFHMSVPVKRTALTKFTVASDECTLEVDESMITMSPVLPEQISAKIKSDLLDQLKEAACSNATQFFSKLNSHLIHFAEATDISQGGHPSHIDVELHFQNPTSEDDTAIHVDVTESVVNAELSKLYSSANTRFIWNDVPEIKELLKSCKTTECRFIEDGDIVSSFFDRPSIRIQSDNTVSLRLPLSTSLTTTNGKELFRIQTEVELNLEDIVLEHPENGEVFWSAKFHIKNIRILQTSSSRNFQKFATRMESWIEEHKLFMENLLNTYIQGSLPVHLRSPLAWTHRVHARPIFSTSSLSFHVHPHFSPSLRVLV”, the “soluble on expression in E. coli” value is reported as “not soluble”. In the case of “MITIDGNGAVASVAFRTSEVIAIYPITPSSTMAEQADAWAGNGLKNVWGDTPRVVEMQSEAGAIATVHGALQTGALSTSFTSSQGLLLMIPTLYKLAGELTPFVLHVAARTVATHALSIFGDHSDVMAVRQTGCAMLCAANVQEAQDFALISQIATLKSRVPFIHFFDGFRTSHEINKIVPLADDTILDLMPQVEIDAHRARALNPEHPVIRGTSANPDTYFQSREATNPWYNAVYDHVEQAMNDFSAATGRQYQPFEYYGHPQAERVIILMGSAIGTCEEVVDELLTRGEKVGVLKVRLYRPFSAKHLLQALPGSVRSVAVLDRTKEPGAQAEPLYLDVMTALAEAFNNGERETLPRVIGGRYGLSSKEFGPDCVLAVFAELNAAKPKARFTVGIYDDVTNLSLPLPENTLPNSAKLEALFYGLGSDGSVSATKNNIKIIGNSTPWYAQGYFVYDSKKAGGLTVSHLRVSEQPIRSAYLISQADFVGCHQLQFIDKYQMAERLKPGGIFLLNTPYSADEVWSRLPQEVQAVLNQKKARFYVINAAKIARECGLAARINTVMQMAFFHLTQILPGDSALAELQGAIAKSYSSKGQDLVERNWQALALARESVEEVPLQPVNPHSANRPPVVSDAAPDFVKTVTAAMLAGLGDALPVSALPPDGTWPMGTTRWEKRNIAEEIPIWKEELCTQCNHCVAACPHSAIRAKVVPPEAMENAPASLHSLDVKSRDMRGQKYVLQVAPEDCTGCNLCVEVCPAKDRQNPEIKAINMMSRLEHVEEEKINYDFFLNLPEIDRSKLERIDIRTSQLITPLFEYSGACSGCGETPYIKLLTQLYGDRMLIANATGCSSIYGGNLPSTPYTTDANGRGPAWANSLFEDNAEFGLGFRLTVDQHRVRVLRLLDQFADKIPAELLTALKSDATPEVRREQVAALRQQLNDVAEAHELLRDADALVEKSIWLIGGDGWAYDIGFGGLDHVLSLTENVNILVLDTQCYSNTGGQASKATPLGAVTKFGEHGKRKARKDLGVSMMMYGHVYVAQISLGAQLNQTVKAIQEAEAYPGPSLIIAYSPCEEHGYDLALSHDQMRQLTATGFWPLYRFDPRRADEGKLPLALDSRPPSEAPEETLLHEQRFRRLNSQQPEVAEQLWKDAAADLQKRYDFLAQMAGKAEKSNTD”, the “soluble on expression in E. coli” value is reported as “soluble”.
